From patent CN116693676A
Numbering of substitutions follows the chain as printed. Values belong to the molecule of their own block, whether it stands above or below them.

Assays:
[1] = biological target: 肺炎支原体天然抗原(购自Microbix) (Mycoplasma pneumoniae); assay: indirect ELISA, antigen coated at 2 ug/ml, antibody 7.5 ng/ml
[2] = biological target: 肺炎支原体天然抗原(购自Microbix) (Mycoplasma pneumoniae); assay: indirect ELISA, antigen coated at 2 ug/ml, antibody 15 ng/ml
[3] = biological target: 肺炎支原体天然抗原(购自Microbix) (Mycoplasma pneumoniae); assay: indirect ELISA, antigen coated at 2 ug/ml, antibody 0.94 ng/ml
[4] = biological target: 肺炎支原体天然抗原(购自Microbix) (Mycoplasma pneumoniae); assay: indirect ELISA, antigen coated at 2 ug/ml, antibody 1.88 ng/ml
[5] = biological target: 肺炎支原体天然抗原(购自Microbix) (Mycoplasma pneumoniae); assay: indirect ELISA, antigen coated at 2 ug/ml, antibody 3.75 ng/ml
[6] = biological target: 肺炎支原体天然抗原(购自Microbix) (Mycoplasma pneumoniae); assay: indirect ELISA, antigen coated at 2 ug/ml, antibody 0 ng/ml (blank)

OD450 (参考630nm) [1]: 0.629 OD | OD450 (参考630nm) [2]: 1.32 OD | OD450 (参考630nm) [3]: 0.118 OD | OD450 (参考630nm) [4]: 0.212 OD | OD450 (参考630nm) [5]: 0.403 OD | OD450 (参考630nm) [6]: 0.015 OD
Molecule: 对照 (antibody)

OD450 (参考630nm) [1]: 1.39 OD | OD450 (参考630nm) [2]: 1.92 OD | OD450 (参考630nm) [3]: 0.205 OD | OD450 (参考630nm) [4]: 0.391 OD | OD450 (参考630nm) [5]: 0.619 OD | OD450 (参考630nm) [6]: 0.013 OD
B1: Anti-MP-22A9mut1 (antibody, mouse IgG1, kappa, V domains shown)
VH: QAYLQQSGAELVRSGASVKMSCKASGYTFTTYNMHWVKQTPGQGLEWIGYVHPGYGITYYSQKFKGKATLTADTSSSTAYMILSSLTSEDSAVYFCTRSYYGYSYWFFDVWGAGTTVTVSS
VL: NIVMTQSPKSVSMSVGERVTLNCKASENVGSYVAWYQQKPDRSPKLLIHGASNRYTGVPDRFTGSGSTTDFTLTISSVQAEDLADYHCGQTYNYPYTFGGGTKLEIKR

OD450 (参考630nm) [1]: 1.6 OD | OD450 (参考630nm) [2]: 2.23 OD | OD450 (参考630nm) [3]: 0.386 OD | OD450 (参考630nm) [4]: 0.534 OD | OD450 (参考630nm) [5]: 0.899 OD | OD450 (参考630nm) [6]: 0.021 OD
B2: Anti-MP-22A9mut2 (antibody, mouse IgG1, kappa, V domains shown)
VH: B1 VH with I82L
VL: B1 VL

OD450 (参考630nm) [1]: 1.67 OD | OD450 (参考630nm) [2]: 2.16 OD | OD450 (参考630nm) [3]: 0.359 OD | OD450 (参考630nm) [4]: 0.512 OD | OD450 (参考630nm) [5]: 0.906 OD | OD450 (参考630nm) [6]: 0.016 OD
B3: Anti-MP-22A9mut3 (antibody, mouse IgG1, kappa, V domains shown)
VH: B1 VH with L70I, I82L
VL: B1 VL

OD450 (参考630nm) [1]: 1.68 OD | OD450 (参考630nm) [2]: 2.03 OD | OD450 (参考630nm) [3]: 0.315 OD | OD450 (参考630nm) [4]: 0.536 OD | OD450 (参考630nm) [5]: 0.814 OD | OD450 (参考630nm) [6]: 0.011 OD
B4: Anti-MP-22A9mut5 (antibody, mouse IgG1, kappa, V domains shown)
VH: B1 VH with I82L, L86I
VL: B1 VL with L73I

OD450 (参考630nm) [1]: 1.47 OD | OD450 (参考630nm) [2]: 1.98 OD | OD450 (参考630nm) [3]: 0.207 OD | OD450 (参考630nm) [4]: 0.401 OD | OD450 (参考630nm) [5]: 0.758 OD | OD450 (参考630nm) [6]: 0.012 OD
B5: Anti-MP-22A9mut4 (antibody, mouse IgG1, kappa, V domains shown)
VH: B1 VH with I82L, L86I
VL: B1 VL

OD450 (参考630nm) [1]: 1.42 OD | OD450 (参考630nm) [2]: 2.01 OD | OD450 (参考630nm) [3]: 0.207 OD | OD450 (参考630nm) [4]: 0.339 OD | OD450 (参考630nm) [5]: 0.627 OD | OD450 (参考630nm) [6]: 0.011 OD
B6: Anti-MP-22A9mut6 (antibody, mouse IgG1, kappa, V domains shown)
VH: B1 VH with I82L, L86I
VL: B1 VL with I75L
